From publication PMC3219669

Tests used:
[1] = target: Gβ1 and YFP-Gγ2 expressed from the Gβ1-2A-YFP-Gγ2 unit; assay: FRET or BRET; FLIM of the mTurquoise donor (phase and modulation lifetimes) in living HeLa cells, room temperature; all three subunits from the single plasmid Gα-IRES-Gβ-2A-Gγ
[2] = target: Gβ1 and YFP-Gγ2 expressed from the Gβ1-2A-YFP-Gγ2 unit; assay: FRET or BRET; FLIM of the mTurquoise donor (phase and modulation lifetimes) in living HeLa cells, room temperature; all three subunits from the single plasmid Gβ-2A-Gγ-IRES-Gα

FRET efficiency from the modulation lifetime (E τM) [1]: 7% | FRET efficiency from the phase lifetime (E τϕ) [1]: 14% | FRET efficiency from the modulation lifetime (E τM) [2]: 19% | FRET efficiency from the phase lifetime (E τϕ) [2]: 27%
Substance: Gαq-mTurquoiseΔ6 (from UniProt P50148 1-359) (natural protein)
